In patent US20100077492A1 one finds PC4 binding to a 10-nt DNA bubble substrate in an electrophoretic mobility shift assay after pre-incubation of the DNA with XPG data, which are given here for one substance.

This assay deals with human PC4 protein (full length wild type) (human) (UniProt P53999). Put plainly: cell-based or functional assay.

For “purified human XPG (without HMK tag) (from UniProt P28715 1-1186) (enzyme)”, the PC4 binding to a 10-nt DNA bubble substrate in an electrophoretic mobility shift assay after pre-incubation of the DNA with XPG came to 44 nM.
